± gives the uncertainty stated by the source.
B1: E3 ubiquitin-protein ligase Midline-1, residues 172 to 214; numbered along this chain, O15344 (parent)
chain: GLMCLEHEDEKVNMYCVTDDQLICALCKLVGRHRDHQVAALSE

Variants of: B1
Experiment: abundance fitness (aPCA) (normalised: wild type 0, dead -1); higher = more abundant; growth selection in yeast, the domain comes from the species named
Settings: Homo sapiens

Abundance fitness, by site and new letter:
E8: N -0.137 ± 0.11 | I -0.139 ± 0.16 | A 0.179 ± 0.054 | Q 0.051 ± 0.074 | D -0.165 ± 0.09 | W -0.348 ± 0.076 | P 0.186 ± 0.081 | S 0.375 ± 0.058 | V 0.072 ± 0.053 | K 0.221 ± 0.074 | C 0.16 ± 0.066 | L 0.108 ± 0.069 | Y -0.243 ± 0.1 | H 0.056 ± 0.13 | T 0.398 ± 0.12 | R 0.116 ± 0.045 | F -0.144 ± 0.17
G1: T -0.235 ± 0.27 | Y -0.192 ± 0.15 | V -0.211 ± 0.072 | R -0.081 ± 0.078 | E 0.134 ± 0.087 | S -0.184 ± 0.11 | D 0.306 ± 0.091 | A -0.361 ± 0.087 | P -0.112 ± 0.23 | K 0.061 ± 0.29 | W -0.611 ± 0.2
L5: R -0.062 ± 0.054 | P 0.058 ± 0.069 | A 0.023 ± 0.051 | W -0.482 ± 0.1 | I -0.435 ± 0.41 | F -0.13 ± 0.3 | S -0.012 ± 0.073 | N -0.124 ± 0.19 | E 0.074 ± 0.066 | Y -0.021 ± 0.16 | V -0.165 ± 0.064 | D 0.039 ± 0.12 | H -0.037 ± 0.11 | G -0.092 ± 0.062 | K 0.142 ± 0.085 | T -0.039 ± 0.12 | C 0.055 ± 0.11 | Q -0.155 ± 0.11
E6: Q -0.036 ± 0.09 | K -0.206 ± 0.066 | T 0.001 ± 0.15 | Y -0.276 ± 0.085 | R -0.297 ± 0.054 | C -0.447 ± 0.17 | P -0.843 ± 0.17 | G -0.438 ± 0.055 | S 0.039 ± 0.064 | F 0.023 ± 0.11 | I 0.126 ± 0.095 | D -0.132 ± 0.19 | L -0.14 ± 0.063 | A -0.085 ± 0.075 | W -0.374 ± 0.083 | H 0.063 ± 0.21 | V -0.183 ± 0.059 | N -0.226 ± 0.18
E10: L -0.214 ± 0.061 | K 0.063 ± 0.087 | S -0.079 ± 0.098 | Q -0.181 ± 0.072 | N 0.093 ± 0.21 | R -0.046 ± 0.049 | P -0.498 ± 0.19 | T -0.204 ± 0.15 | V -0.414 ± 0.059 | C -0.062 ± 0.074 | A -0.133 ± 0.059 | F -0.136 ± 0.16 | H 0.066 ± 0.16 | M -0.029 ± 0.097 | D -0.164 ± 0.12 | G -0.316 ± 0.047 | W -0.247 ± 0.062
H7: Q -0.551 ± 0.12 | V -1.34 ± 0.18 | G -0.5 ± 0.057 | K -0.604 ± 0.12 | M -0.66 ± 0.12 | T -0.492 ± 0.15 | L -1.03 ± 0.14 | C -0.466 ± 0.14 | Y -0.637 ± 0.13 | S -0.765 ± 0.11 | E -0.433 ± 0.081 | R -0.646 ± 0.07 | A -0.703 ± 0.083 | W -0.89 ± 0.13
L2: Y 0.109 ± 0.17 | K 0.795 ± 0.1 | I 0.257 ± 0.12 | D 0.674 ± 0.13 | A 0.483 ± 0.058 | F -0.298 ± 0.33 | H 0.147 ± 0.085 | E 0.611 ± 0.056 | T 0.51 ± 0.069 | M 0.544 ± 0.066 | S 0.279 ± 0.066 | V 0.233 ± 0.061 | C 0.19 ± 0.092 | Q 0.063 ± 0.11
C4: E -0.441 ± 0.096 | W -0.439 ± 0.12 | R -0.647 ± 0.086 | Y -0.594 ± 0.2 | G -0.713 ± 0.083 | A -0.699 ± 0.11 | Q -0.314 ± 0.079 | H -0.221 ± 0.24 | S -0.295 ± 0.085 | P -1.18 ± 0.29 | V -0.944 ± 0.14 | T -0.078 ± 0.13 | D -0.343 ± 0.083
M3: N 0.019 ± 0.16 | H 0.14 ± 0.1 | L -0.05 ± 0.072 | K -0.006 ± 0.083 | P -0.309 ± 0.093 | C -0.21 ± 0.21 | I 0.089 ± 0.11 | A -0.022 ± 0.12 | W -0.333 ± 0.086 | E -0.332 ± 0.1 | D 0.018 ± 0.21 | F 0.111 ± 0.13 | Q -0.276 ± 0.14 | V -0.144 ± 0.075 | Y -0.229 ± 0.26 | T -0.166 ± 0.093 | S 0.006 ± 0.06 | R -0.101 ± 0.057
D9: K -0.38 ± 0.1 | M 0.246 ± 0.072 | W -0.052 ± 0.055 | S 0.02 ± 0.059 | R 0.027 ± 0.049 | P -0.088 ± 0.18 | G 0.031 ± 0.045 | F 0.173 ± 0.11 | T -0.24 ± 0.12 | A -0.418 ± 0.067 | E -0.378 ± 0.087 | V -0.086 ± 0.049 | H -0.107 ± 0.18 | C 0.13 ± 0.08 | I 0.042 ± 0.095 | L 0.084 ± 0.054 | N 0.636 ± 0.22 | Q 0.116 ± 0.065 | Y -0.113 ± 0.22
K11: I 0.284 ± 0.21 | G -0.186 ± 0.051 | F -0.132 ± 0.22 | A -0.107 ± 0.054 | C 0.148 ± 0.081 | H 0.19 ± 0.41 | D -0.258 ± 0.14 | E 0.033 ± 0.07

Source: the Human Domainome abundance scans (Beltran et al. 2025)
